Literature values in publication PMC3760146.

Biological target: Histone H4 K8ac peptide 1-12 (Homo sapiens) (UniProt P62805)
Assay: NMR titration

Kd: 346 µM
Substance: P/CAF bromodomain (from UniProt Q92831)
